Earlier results as cited in PMC4540356 (Thrombosis and haemostasis, 2010).

Test system: endothelial cells
Details: via activation of ERK1/2 and Akt, ref [39]

B1: nicotinomide phosphoribosyltransferase/pre-B cell colony-enhancing factor (protein, UniProt P43490 1-491, looked up)
Nicotinamide …: MNPAAEAEFNILLATDSYKVTHYKQYPPNTSKVYSYFECREKKTENSKLRKVKYEETVFYGLQYILNKYLKGKVVTKEKIQEAKDVYKEHFQDDVFNEKGWNYILEKYDGHLPIEIKAVPEGFVIPRGNVLFTVENTDPECYWLTNWIETILVQSWYPITVATNSREQKKILAKYLLETSGNLDGLEYKLHDFGYRGVSSQETAGIGASAHLVNFKGTDTVAGLALIKKYYGTKDPVPGYSVPAAEHSTITAWGKDHEKDAFEHIVTQFSSVPVSVVSDSYDIYNACEKIWGEDLRHLIVSRSTQAPLIIRPDSGNPLDTVLKVLEILGKKFPVTENSKGYKLLPPYLRVIQGDGVDINTLQEIVEGMKQKMWSIENIAFGSGGGLLQKLTRDLLNCSFKCSYVVTNGLGINVFKDPVADPNKRSKKGRLSLHRTPAGNFVTLEEGKGDLEEYGQDLLHTVFKNGKVTKSYSFDEIRKNAQLNIELEAAHH
peNOS and NO induction in endothelial cells: induce peNOS and NO in endothelial cells
